Assay: soluble on expression in E. coli; label from the status in PepcDB or PDB records

Soluble on expression in E. coli, soluble:
MDNYEKVRVVGRGAFGVCWLCRGKNDASHQKVIIKLINTHGMTEKEENSIQSEVNLLKKVQHPLIIGYIDSFIMDNQLGIVMQYAEGGTLERLINDQRAIKDSNMREYFPEKTVLDYFTQILIALNHMHQKNIVHRDLKPQNILMNRRKTVLKLSDFGISKELGTKSAASTVIGTPNYLSPEICESRPYNQKSDMWSLGCVLYELLQLERAFDGENLPAIVMKITRSKQNPLGDHVSNDVKMLVENLLKTHTDKRPDVSQLLSDPLVLPYLISIHCDLGRIEPPPTDKRKPSASLSSRLRTYPTQSTLRPYSLSSNAPTTHLTQLTPMPSHIDSGFFSSGRTSNQRTQSRSQVHSKY
MSLINGSDPRYNFNVAPYPYCRLCKGHKHMCGLRVCPILERFQEVFPRLDLHGDISTSTPPSIFIGEYNYPSVYGGIMSVVDPERPYARRDMFDLGMPEIIERNANLFRNVKTVSVHNLSEKTVEQIQEAAMALNELRVESRIVGKEKHFDFFDSPVGPMYKSENIKVYGNAKTPRAAQDVIYDIDLNSTEALKILYMNSIDINYITGLLSGGLLGIEKKRKLVPTRWSITAVDDTISRYLKSDALNYESIDKPMVFSYSRFGNHFNIILLPRGTAFEMQEYWEIGSLWGSDGRVSIDFEGHHHHHH
MTVVNEYRPVEVFFGEGAVKKAGEVGRRFGFKALIVTGRKSTKESGALDKLINSLKQNQIEYVVFDEITPNPTDKQVNKGAEIAVNEKVDFIVGIGGGSVLDAAKAISIVSSNEGYAWDYVRYPEGSRLIPFLNRPVITIPTTAGTGSEVNRYSVLTNPMTKEKMVISHSLNYPKVALVDPELTYSMPPRLTALTGFDALMHALESLTNKRENFIAEEYSVKAIELIRKWLPVAFEEPENKEARRYMSYAAMLAGIAIDHLGVALIHAMEHPVSGHYPEVAHAEGLSALAPYITAFNYRGNPEKYALFARLMGEEEKPHKAVDALVKFIERFSLPKTLKELGVEKEKLPRLAEDVYMCARHSFAVNPVEVGMEEVEELYERAYEGRL
MKLSPSVIALSVLLSSHTLANTAGQVETCQQKAQDIQRQIDEAHKHGNQNRINGLEKALDGVKNHCTDAGLAEKRQEAIAEKRKDVAERQQELSESRQKRDDAEKILKRERKLAEAEQELRAAESGASQLEHHHHHH

Soluble on expression in E. coli, not soluble:
GKGLGRRVLSINEIVGYDAVNQAFNFMDIFKWDPATDTFKFTGKNNSYLLEHKIAPRMGIPETQVRKIYSELDRRSKILRKIHQANITNFYDLFTTLIQLEEAGVIS
MGSDKIHHHHHHMTLYLGIDTSAYTTSLAIVDEQAELVYENRKILTVPEGERGLAQSAALFQHVQNLPQLVTAVPPQYWEKVSALGVSTAPRPIQESYMPVFLPGYGVAAAMASARCIPLVETSHQEGHLAAGIASSKLKEPHFLAIHISGGTTELLEVHHTQPGKLDIQLLGGTTDLHAGQFVDRVGVRLGLPFPAGKSLEELARQADPGAAAWLPSAVRGFEVSFSGVETAAQRLIDQGKNPADVARAVEGCIVRTLGKLLQAGMEKTTLSEILIVGGVASNQFIRQELKKRLARHANLHWAEPDWSRDNAIGVALLALEKVRGCII
MTNPTKPIPLNFDKPRRFMPPKHFADLSADERIDALKELGLPKFRANQIARHYYGRLEADPSTMTDLPAAAREKVKDALFPQLMQPVRAVQADDGETQKTLWKLHDGTLLESVLMRYPNRATLCISSQAGCGMACPFCATGQGGLDRNLSTGEIVDQVRAASATMQAEGGRLSNIVFMGMGEPLANYKRVVSAVRQITAPVPEGFGISQRNVTVSTVGLAPAIRKLADEDLSVTLAVSLHTPDDELRNTLVPTNNRWEVAEVLDAARYYADRSGRRVSIEYALIRDVNDQGWRADMLGKKLHKALGPLVHVNLIPLNPTPGSKWDASPMDRQKEFVQRVIAQGVTCTVRDTRGQEIAAACGQLAAEER

— the DeepSol protein solubility set
